The text below walks through data of patent US20250205337A1, “COMPOSITIONS AND METHODS FOR ACTIVATING IMMUNE CELLS” (MDX Management LLC, priority 2022, published 2025).

“Also recorded” adds a separate entry of the source.

Format in all cases: cell-based, human
The test system of one assay is κAPC. The experiment in a line: Proinflammatory phenotype of κAPC (KX2 refinement). To be noted: in the presence of tumor cells. The text has this:
Karnelian X1 cytokines, additional cytokines, TLR ligands and other factors for phenotypic optimization of cMo-derived APCs were further tested. These efforts led to the formation of Karnelian X2, which acted to further bolster κAPC for phagocytosis, immunogenic antigen presentation, and T cell priming, and also endowed κAPC with a proinflammatory phenotype and the ability to resist repolarization in the tumor microenvironment. KX2™ comprises cytokines (choices of IFNα, IFNγ and TNFα), TLR ligands (choices of Poly IC, CpG, R848), and TPI-1.

In assay [1] the test system is monocytes from cancer patients (cMo). Put plainly: cMo survival in vitro (STAT3 activators, inhibitors, M-CSF/GM-CSF, KX1). The text has this: After two days, the T cell culture medium was used to treat cMo.
IL-10/IL-10R signaling activates the downstream STAT3 signaling pathway.
(§1) The mechanisms by which KX1 could promote cMo survival was further studied.

The test system of another assay is IL-10. Put plainly: IL-10 production by cMo. The text has this:
Particularly, high levels of IL-10 and IL-6 were detected in Karnelian X1. Further cytokine depletion assays confirmed the critical role of IL-10, and its depletion largely (60-80%) diminished the capacity of cMo adhesion and survival (FIG. 5B).

In assay [2] the test system is monocytes from healthy donors (Mo). The experiment in a line: Response of monocytes from healthy donors (Mo) to M-CSF and GM-CSF. The text has this:
Similarly, cMo poorly respond to GM-CSF alone or GM-CSF plus IL-4 that drives DC differentiation (data not shown). […] Parallel experiments testing the same M-CSF and GM-CSF reagents successfully differentiated Mo from healthy donors with >90% survival rates.
(§2) Examination of Akt and Erk1/2, as well as other signaling molecules, detected similar total levels in Mo versus cMo (FIG. 2C), ruling out the absence of protein phosphorylation due to reduction of protein translation.

Assay [3] deals with monocytes from cancer patients (cMo). Put plainly: Cytokine depletion assays of Karnelian X1 (cMo survival/adhesion and differentiation). The conditions noted are these: depletion assays. As to the method:
The differentiation of cMo from >100 cancer patient samples was tested.
The role of IL-10 and other key factors in KX1 was further studied.

Assay [4] deals with Akt, Erk1/2, STAT3, caspase-9 and caspase-3 in cMo. The experiment in a line: Survival and apoptosis signal transduction in cMo (Western blotting).
Text: as §2, §1
The role of IL-10 and other key factors in KX1 was further studied. As shown in FIG. 9A-9D, depletion of IL-10 diminished (>70%) KX1-mediated activation of Akt, Erk 1/2, and STAT3, and this global reduction of survival signal was associated with an increase in cell death signal through activation of caspase-9 and caspase-3.
As shown in FIG. 10A-10C, triple cytokine combination (C-combo V1) was capable of achieving >80% cMo differentiation, although each component alone was not sufficient.
(Immunoblotting shows a protein as a band on a membrane.)

With `O=C1C=CC(=O)C(c2cc(Cl)ccc2Cl)=C1` [TPI-1], the “proinflammatory phenotype of κAPC” value in the assay on κAPC was “promotes proinflammatory phenotype of κAPC”.

B1: IL-12: IL-12 family cytokine, STAT3 activator (protein, UniProt P29459 23-219; P29460 23-328, looked up)
Interleukin-12 subunit alpha: RNLPVATPDPGMFPCLHHSQNLLRAVSNMLQKARQTLEFYPCTSEEIDHEDITKDKTSTVEACLPLELTKNESCLNSRETSFITNGSCLASRKTSFMMALCLSSIYEDLKMYQVEFKTMNAKLLMDPKRQIFLDQNMLAVIDELMQALNFNSETVPQKSSLEEPDFYKTKIKLCILLHAFRIRAVTIDRVMSYLNAS
Interleukin-12 subunit beta: IWELKKDVYVVELDWYPDAPGEMVVLTCDTPEEDGITWTLDQSSEVLGSGKTLTIQVKEFGDAGQYTCHKGGEVLSHSLLLLHKKEDGIWSTDILKDQKEPKNKTFLRCEAKNYSGRFTCWWLTTISTDLTFSVKSSRGSSDPQGVTCGAATLSAERVRGDNKEYEYSVECQEDSACPAAEESLPIEVMVDAVHKLKYENYTSSFFIRDIIKPDPPKNLQLKPLKNSRQVEVSWEYPDTWSTPHSYFSLTFCVQVQGKSKREKKDRVFTDKTSATVICRKNASISVRAQDRYYSSSWSEWASVPCS
On to B1, for which the “cMo survival (and differentiation) on supplementation” value in assay [1] (IL-10-depleted KX1 / in place of IL-10) is “could replace IL-10 to support cMo survival and differentiation”. The “Effectiveness (cMo survival rate)” value in assay [1] (in vitro, at optimal concentration) was 50-70%. The “Optimal concentration (ng/mL)” value in assay [1] (promoting cMo survival in vitro) is given as >10 ng/mL (10-100). Moreover, the “induction of IL-10 in cMo” value in the assay on IL-10 is listed as “induction of IL-10”.

B2: M-CSF: classical macrophage differentiation factor (protein, UniProt P09603 33-554, looked up)
Macrophage colony-stimulating …: EEVSEYCSHMIGSGHLQSLQRLIDSQMETSCQITFEFVDQEQLKDPVCYLKKAFLLVQDIMEDTMRFRDNTPNAIAIVQLQELSLRLKSCFTKDYEEHDKACVRTFYETPLQLLEKVKNVFNETKNLLDKDWNIFSKNCNNSFAECSSQDVVTKPDCNCLYPKAIPSSDPASVSPHQPLAPSMAPVAGLTWEDSEGTEGSSLLPGEQPLHTVDPGSAKQRPPRSTCQSFEPPETPVVKDSTIGGSPQPRPSVGAFNPGMEDILDSAMGTNWVPEEASGEASEIPVPQGTELSPSRPGGGSMQTEPARPSNFLSASSPLPASAKGQQPADVTGTALPRVGPVRPTGQDWNHTPQKTDHPSALLRDPPEPGSPRISSLRPQGLSNPSTLSAQPQLSRSHSSGSVLPLGELEGRRSTRDRRSPAEPEGGPASEGAARPLPRFNSVPLTDTGHERQSEGSFSPQLQESVFHLLVPSVILVLLAVGGLLFYRWRRRSHQEPQRADSPLEQPEGSPLTQDDRQVELPV
Turning to B2, in assay [1] (over twenty cMo samples, various solid tumors), the “cMo responsiveness to differentiation factor” value is “non- or poor responsiveness”. Besides, the “survival signal transduction in Mo (activation of Akt and Erk1/2)” value in assay [2] is listed as “induced strong survival signal transduction in Mo cells”. The “role of the cytokine in Karnelian X1 for cMo survival and differentiation” value in assay [3] is given as “dispensable”. Besides, in assay [4], the “activation of Akt, Erk1/2, STAT3 in cMo” value was “failed to activate Akt and Erk1/2”; the “caspase-9 and caspase-3 cleavage in cMo” value is “increased caspase-9 and caspase-3 cleavage; also recorded: did induce apoptotic signals via cleavage of caspase-9 and caspase-3”.
